Measurements reported in patent US20160122421A1 (IPIERIAN, published 2016).

T1: eTau-4 peptide
T1 construct: also called synthetic eTau4 polypeptide
T1 peptide: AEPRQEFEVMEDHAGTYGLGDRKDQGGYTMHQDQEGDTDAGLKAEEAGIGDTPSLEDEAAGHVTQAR

T2: eTau 1b
T2 construct: member of the group m9
T2 polypeptide: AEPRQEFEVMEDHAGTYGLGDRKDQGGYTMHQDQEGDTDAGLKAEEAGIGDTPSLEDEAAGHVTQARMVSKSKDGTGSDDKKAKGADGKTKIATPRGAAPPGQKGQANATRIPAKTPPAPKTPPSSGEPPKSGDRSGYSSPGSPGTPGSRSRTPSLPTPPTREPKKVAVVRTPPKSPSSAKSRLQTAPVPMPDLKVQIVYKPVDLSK

T3: eTau 2
T3 construct: member of the group m9
T3 polypeptide: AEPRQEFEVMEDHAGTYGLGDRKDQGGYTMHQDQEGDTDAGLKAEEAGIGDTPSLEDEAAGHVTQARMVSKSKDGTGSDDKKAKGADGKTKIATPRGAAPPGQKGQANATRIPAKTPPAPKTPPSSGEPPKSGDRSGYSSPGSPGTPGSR


Key:
[1] = target: eTau 4 (FIG. 17); test: relative binding affinity, method not named (Table 4); fifth column, headed eTau 4
eTau-4 peptide = target: T1, eTau-4 peptide; test: relative binding affinity, method not named (Table 4); sixth column, headed eTau 4
[2] = target: T4, 383 amino acid recombinant tau (UniProt P10636-6 1-383, biotinylated where printed as biotin-rTau383 (position not given)); test: relative binding affinity, method not named (Table 4)
T4 construct: also called rTau383

[3] = target: eTau1a (amino acids 2-166 of fetal tau) (Homo sapiens (Human), UniProt P10636 2-541); test: as above
eTau 1b = target: T2, eTau 1b; test: as above
eTau 2 = target: T3, eTau 2; test: as above
[4] = target: T4, 383 amino acid recombinant tau; test: Octet

T4 sequence (P10636 other isoform, or with tags, fused parts or gaps limits assumed): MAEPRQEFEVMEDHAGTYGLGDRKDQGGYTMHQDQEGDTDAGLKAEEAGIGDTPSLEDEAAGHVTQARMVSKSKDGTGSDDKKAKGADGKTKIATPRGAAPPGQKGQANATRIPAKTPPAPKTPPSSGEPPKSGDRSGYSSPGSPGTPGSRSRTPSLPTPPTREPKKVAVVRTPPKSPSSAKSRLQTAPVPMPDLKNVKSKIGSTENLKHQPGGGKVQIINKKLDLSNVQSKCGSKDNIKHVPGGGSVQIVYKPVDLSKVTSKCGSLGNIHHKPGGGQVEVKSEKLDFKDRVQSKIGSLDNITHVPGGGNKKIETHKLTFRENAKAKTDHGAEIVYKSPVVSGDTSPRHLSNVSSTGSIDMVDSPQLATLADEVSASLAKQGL

Binder | Kd [1] [nM] | Kd (eTau-4 peptide) [nM] | Kd [2] [nM] | Kd [3] [nM] | Kd (eTau 1b) [nM] | Kd (eTau 2) [nM] | Kd [4] [nM] | koff [4] [s⁻¹] | kon [4] [M⁻¹ s⁻¹]
humanized IPN002 variant VH2/Vk2 (antibody, V domains shown) VH: EVHLVESGGALVKPGGSLRLSCAASGFSFSKYGMSWVRQAPGKGLEWVATISSSGSRTYYPDSVKGRFTISRDNAKNTLYLQMNSLRAEDTAMYYCSISWDGAMDYWGQGTTVTVSS VL: DVVMTQSPLSLPVTLGQPASISCKSSQSIVHSNGNTYLEWYLQKPGQSPQLLVYKVSNRFSGVPDRFSGSGSGTDFTLKISRVEAEDVGTYYCFQGSLVPWAFGGGTKVEIK | 0.294 | 0.394 | 0.199 | 0.327 | 0.229 | 0.283 | 0.232 | 4.75e-05 | 205000
IPN002 (antibody, V domains shown, It is the murine parental antibody; also called IPN2; IPN-2) VH: EVHLVESGGALVKPGGSLKLSCAASGFSFSKYGMSWVRQTPDKRLEWVATISSSGSRTYYPDSVKGQFTISRDNAKNTLYLQMSSLKSEDTAMYYCSISWDGAMDYWGQGTSVTVSS VL: DVLMTQTPLSLPVSLGDQASISCKSSQSIVHSNGNTYLEWYLQKPGQSPKLLVYKVSNRFSGVPDRFSGSGSGTDFTLKISRVEAEDLGTYYCFQGSLVPWAFGGGTKLEIK | – | – | – | – | – | – | 0.206 | 4.78e-05 | 233000
VH1/Vk1 (antibody, V domains shown, member of the group m7; also called humanized IPN002 variant VH1/Vk1) VH: EVHLVESGGALVKPGGSLRLSCAASGFSFSKYGMSWVRQAPGKGLEWVATISSSGSRTYYPDSVKGRFTISRDNAKNTLYLQMSSLKSEDTAMYYCSISWDGAMDYWGQGTSVTVSS VL: DVLMTQSPLSLPVTLGQPASISCKSSQSIVHSNGNTYLEWYLQKPGQSPQLLVYKVSNRFSGVPDRFSGSGSGTDFTLKISRVEAEDVGTYYCFQGSLVPWAFGGGTKVEIK | 0.358 | 0.577 | 0.183 | 0.294 | 0.737 | 0.465 | 0.0426 | 8.75e-06 | 206000
VH2/Vk4 (antibody, V domains shown, member of the group m7; also called humanized IPN002 variant VH2/Vk4) VH: EVHLVESGGALVKPGGSLRLSCAASGFSFSKYGMSWVRQAPGKGLEWVATISSSGSRTYYPDSVKGRFTISRDNAKNTLYLQMNSLRAEDTAMYYCSISWDGAMDYWGQGTTVTVSS VL: DVVMTQSPLSLPVTLGQPASISCKSSQSIVHSNGNTYLEWYLQKPGQSPQLLIYKVSNRFSGVPDRFSGSGSGTDFTLKISRVEAEDVGVYYCFQGSLVPWAFGGGTKVEIK | 0.418 | 0.671 | 0.248 | 0.343 | 0.52 | 0.354 | 1.66 | 0.000236 | 142000
VH3/Vk4 (antibody, V domains shown, member of the group m7; also called humanized IPN002 variant VH3/Vk4) VH: EVQLVESGGALVKPGGSLRLSCAASGFSFSKYGMSWVRQAPGKGLEWVATISSSGSRTYYPDSVKGRFTISRDNAKNTLYLQMNSLRAEDTAMYYCSISWDGAMDYWGQGTTVTVSS VL: DVVMTQSPLSLPVTLGQPASISCKSSQSIVHSNGNTYLEWYLQKPGQSPQLLIYKVSNRFSGVPDRFSGSGSGTDFTLKISRVEAEDVGVYYCFQGSLVPWAFGGGTKVEIK | 0.381 | 0.586 | 0.255 | 0.216 | 0.382 | 0.447 | 0.475 | 0.0001 | 211000
VH1/Vk2 (antibody, V domains shown, member of the group m7; also called humanized IPN002 variant VH1/Vk2) VH: EVHLVESGGALVKPGGSLRLSCAASGFSFSKYGMSWVRQAPGKGLEWVATISSSGSRTYYPDSVKGRFTISRDNAKNTLYLQMSSLKSEDTAMYYCSISWDGAMDYWGQGTSVTVSS VL: DVVMTQSPLSLPVTLGQPASISCKSSQSIVHSNGNTYLEWYLQKPGQSPQLLVYKVSNRFSGVPDRFSGSGSGTDFTLKISRVEAEDVGTYYCFQGSLVPWAFGGGTKVEIK | 0.321 | 0.633 | 0.121 | 0.212 | 0.558 | 0.361 | 0.446 | 8.74e-05 | 196000
VH3/Vk1 (antibody, V domains shown, member of the group m7; also called humanized IPN002 variant VH3/Vk1) VH: EVQLVESGGALVKPGGSLRLSCAASGFSFSKYGMSWVRQAPGKGLEWVATISSSGSRTYYPDSVKGRFTISRDNAKNTLYLQMNSLRAEDTAMYYCSISWDGAMDYWGQGTTVTVSS VL: DVLMTQSPLSLPVTLGQPASISCKSSQSIVHSNGNTYLEWYLQKPGQSPQLLVYKVSNRFSGVPDRFSGSGSGTDFTLKISRVEAEDVGTYYCFQGSLVPWAFGGGTKVEIK | 0.454 | 0.921 | 0.236 | 0.241 | 0.529 | 0.705 | 1.99 | 0.000257 | 129000
VH1/Vk3 (antibody, V domains shown, member of the group m7; also called humanized IPN002 variant VH1/Vk3) VH: EVHLVESGGALVKPGGSLRLSCAASGFSFSKYGMSWVRQAPGKGLEWVATISSSGSRTYYPDSVKGRFTISRDNAKNTLYLQMSSLKSEDTAMYYCSISWDGAMDYWGQGTSVTVSS VL: DVVMTQSPLSLPVTLGQPASISCKSSQSIVHSNGNTYLEWYLQKPGQSPQLLVYKVSNRFSGVPDRFSGSGSGTDFTLKISRVEAEDVGVYYCFQGSLVPWAFGGGTKVEIK | 0.478 | 0.761 | 0.175 | 0.291 | 0.59 | 0.444 | 1.28 | 0.000233 | 182000
humanized IPN002 variant VH2/Vk1 (antibody, V domains shown) VH: EVHLVESGGALVKPGGSLRLSCAASGFSFSKYGMSWVRQAPGKGLEWVATISSSGSRTYYPDSVKGRFTISRDNAKNTLYLQMNSLRAEDTAMYYCSISWDGAMDYWGQGTTVTVSS VL: DVLMTQSPLSLPVTLGQPASISCKSSQSIVHSNGNTYLEWYLQKPGQSPQLLVYKVSNRFSGVPDRFSGSGSGTDFTLKISRVEAEDVGTYYCFQGSLVPWAFGGGTKVEIK | 0.369 | 0.321 | 0.242 | 0.281 | 0.215 | 0.225 | – | – | –
VH1/Vk4 (antibody, V domains shown, member of the group m7; also called humanized IPN002 variant VH1/Vk4) VH: EVHLVESGGALVKPGGSLRLSCAASGFSFSKYGMSWVRQAPGKGLEWVATISSSGSRTYYPDSVKGRFTISRDNAKNTLYLQMSSLKSEDTAMYYCSISWDGAMDYWGQGTSVTVSS VL: DVVMTQSPLSLPVTLGQPASISCKSSQSIVHSNGNTYLEWYLQKPGQSPQLLIYKVSNRFSGVPDRFSGSGSGTDFTLKISRVEAEDVGVYYCFQGSLVPWAFGGGTKVEIK | 0.269 | 0.869 | 0.286 | 0.252 | 0.597 | 0.427 | 0.571 | 9.52e-05 | 167000
VH4/Vk2 (antibody, V domains shown, member of the group m7; also called humanized IPN002 variant VH4/Vk2) VH: EVQLVESGGALVKPGGSLRLSCAASGFSFSKYGMSWVRQAPGKGLEWVATISSSGSRTYYPDSVKGRFTISRDNAKNTLYLQMNSLRAEDTAMYYCAISWDGAMDYWGQGTTVTVSS VL: DVVMTQSPLSLPVTLGQPASISCKSSQSIVHSNGNTYLEWYLQKPGQSPQLLVYKVSNRFSGVPDRFSGSGSGTDFTLKISRVEAEDVGTYYCFQGSLVPWAFGGGTKVEIK | 0.291 | 0.467 | 0.16 | 0.191 | 0.483 | 0.451 | 1.88 | 0.000307 | 163000
VH4/Vk1 (antibody, V domains shown, member of the group m7; also called humanized IPN002 variant VH4/Vk1) VH: EVQLVESGGALVKPGGSLRLSCAASGFSFSKYGMSWVRQAPGKGLEWVATISSSGSRTYYPDSVKGRFTISRDNAKNTLYLQMNSLRAEDTAMYYCAISWDGAMDYWGQGTTVTVSS VL: DVLMTQSPLSLPVTLGQPASISCKSSQSIVHSNGNTYLEWYLQKPGQSPQLLVYKVSNRFSGVPDRFSGSGSGTDFTLKISRVEAEDVGTYYCFQGSLVPWAFGGGTKVEIK | 0.28 | 0.498 | 0.187 | 0.198 | 0.359 | 0.405 | 2.12 | 0.000297 | 140000
VH3/Vk2 (antibody, V domains shown, member of the group m7; also called humanized IPN002 variant VH3/Vk2) VH: EVQLVESGGALVKPGGSLRLSCAASGFSFSKYGMSWVRQAPGKGLEWVATISSSGSRTYYPDSVKGRFTISRDNAKNTLYLQMNSLRAEDTAMYYCSISWDGAMDYWGQGTTVTVSS VL: DVVMTQSPLSLPVTLGQPASISCKSSQSIVHSNGNTYLEWYLQKPGQSPQLLVYKVSNRFSGVPDRFSGSGSGTDFTLKISRVEAEDVGTYYCFQGSLVPWAFGGGTKVEIK | 0.589 | 0.701 | 0.258 | 0.282 | 0.614 | 0.408 | 0.577 | 0.000107 | 185000
VH3/Vk3 (antibody, V domains shown, member of the group m7; also called humanized IPN002 variant VH3/Vk3) VH: EVQLVESGGALVKPGGSLRLSCAASGFSFSKYGMSWVRQAPGKGLEWVATISSSGSRTYYPDSVKGRFTISRDNAKNTLYLQMNSLRAEDTAMYYCSISWDGAMDYWGQGTTVTVSS VL: DVVMTQSPLSLPVTLGQPASISCKSSQSIVHSNGNTYLEWYLQKPGQSPQLLVYKVSNRFSGVPDRFSGSGSGTDFTLKISRVEAEDVGVYYCFQGSLVPWAFGGGTKVEIK | 0.469 | 0.665 | 0.224 | 0.22 | 0.689 | 0.471 | 0.169 | 3.15e-05 | 187000
